Patent publication US20090118167A1, “Selective Vpac2 Receptor Peptide Agonists” (Eli Lilly and Company Patent Division, priority 2004, published 2009)
Square brackets hold non-standard residues; d marks the D form. Ends that are not written are not given here. Nle = CCCC[C@H](N)C(=O)O; Orn = NCCC[C@H](N)C(=O)O; Aib = CC(C)(N)C(=O)O

T1: human VPAC1 (Homo sapiens, UniProt P32241)
T1 construct: expressed in transfected cells
T1 sequence (P32241 31-457): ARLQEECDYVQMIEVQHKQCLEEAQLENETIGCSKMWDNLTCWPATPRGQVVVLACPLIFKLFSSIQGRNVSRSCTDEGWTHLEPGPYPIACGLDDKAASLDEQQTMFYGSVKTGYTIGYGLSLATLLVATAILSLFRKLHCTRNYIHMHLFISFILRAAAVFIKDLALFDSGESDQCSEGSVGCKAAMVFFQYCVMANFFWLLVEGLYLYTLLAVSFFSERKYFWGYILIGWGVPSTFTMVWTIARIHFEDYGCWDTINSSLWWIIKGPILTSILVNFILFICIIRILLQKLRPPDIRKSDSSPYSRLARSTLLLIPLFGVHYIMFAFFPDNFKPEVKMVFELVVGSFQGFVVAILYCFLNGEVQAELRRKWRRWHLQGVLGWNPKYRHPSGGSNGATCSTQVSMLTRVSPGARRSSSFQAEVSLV

T2: human PAC1 (Homo sapiens, UniProt P41586)
T2 construct: expressed in transfected cells; membranes)
T2 sequence (P41586 21-468): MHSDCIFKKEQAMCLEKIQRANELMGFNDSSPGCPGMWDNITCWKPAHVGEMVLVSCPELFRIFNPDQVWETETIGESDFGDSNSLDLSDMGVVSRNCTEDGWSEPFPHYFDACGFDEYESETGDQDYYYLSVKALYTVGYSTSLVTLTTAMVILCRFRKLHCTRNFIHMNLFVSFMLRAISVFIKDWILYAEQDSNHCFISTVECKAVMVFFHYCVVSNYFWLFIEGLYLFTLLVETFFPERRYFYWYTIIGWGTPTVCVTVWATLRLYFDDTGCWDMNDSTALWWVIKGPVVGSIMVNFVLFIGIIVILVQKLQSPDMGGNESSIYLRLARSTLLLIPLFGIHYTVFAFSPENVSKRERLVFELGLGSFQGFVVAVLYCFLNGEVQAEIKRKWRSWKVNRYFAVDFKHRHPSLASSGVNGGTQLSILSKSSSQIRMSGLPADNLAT

T3: human VPAC2 receptor (human, UniProt P41587 24-438)
T3 sequence (looked up): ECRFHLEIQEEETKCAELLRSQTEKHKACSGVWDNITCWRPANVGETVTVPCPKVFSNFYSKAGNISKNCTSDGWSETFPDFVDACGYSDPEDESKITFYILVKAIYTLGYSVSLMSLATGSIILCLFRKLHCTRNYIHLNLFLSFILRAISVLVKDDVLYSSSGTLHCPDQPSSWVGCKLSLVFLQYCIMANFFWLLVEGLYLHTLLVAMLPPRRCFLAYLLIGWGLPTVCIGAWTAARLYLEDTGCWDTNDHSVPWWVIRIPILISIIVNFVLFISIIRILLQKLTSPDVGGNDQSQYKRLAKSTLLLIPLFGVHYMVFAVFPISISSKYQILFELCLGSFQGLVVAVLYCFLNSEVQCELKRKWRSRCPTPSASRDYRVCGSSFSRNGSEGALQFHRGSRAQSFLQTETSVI

T4: rat VPAC2 receptor (rat, UniProt P35000 23-437)
T4 sequence (looked up): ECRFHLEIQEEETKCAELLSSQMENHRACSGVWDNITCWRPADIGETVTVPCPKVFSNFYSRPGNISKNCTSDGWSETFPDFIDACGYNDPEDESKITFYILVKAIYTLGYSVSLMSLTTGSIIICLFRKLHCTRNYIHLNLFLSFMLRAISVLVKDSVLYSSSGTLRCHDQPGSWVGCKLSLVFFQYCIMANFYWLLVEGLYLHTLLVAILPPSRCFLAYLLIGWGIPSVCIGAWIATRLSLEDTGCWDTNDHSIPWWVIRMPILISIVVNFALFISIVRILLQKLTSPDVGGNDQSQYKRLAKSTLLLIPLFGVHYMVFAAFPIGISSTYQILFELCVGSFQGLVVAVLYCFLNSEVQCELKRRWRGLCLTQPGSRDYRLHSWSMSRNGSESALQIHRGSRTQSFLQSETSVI

T5: rat VPAC1 receptor (rat, UniProt P30083 31-459)
T5 sequence (looked up): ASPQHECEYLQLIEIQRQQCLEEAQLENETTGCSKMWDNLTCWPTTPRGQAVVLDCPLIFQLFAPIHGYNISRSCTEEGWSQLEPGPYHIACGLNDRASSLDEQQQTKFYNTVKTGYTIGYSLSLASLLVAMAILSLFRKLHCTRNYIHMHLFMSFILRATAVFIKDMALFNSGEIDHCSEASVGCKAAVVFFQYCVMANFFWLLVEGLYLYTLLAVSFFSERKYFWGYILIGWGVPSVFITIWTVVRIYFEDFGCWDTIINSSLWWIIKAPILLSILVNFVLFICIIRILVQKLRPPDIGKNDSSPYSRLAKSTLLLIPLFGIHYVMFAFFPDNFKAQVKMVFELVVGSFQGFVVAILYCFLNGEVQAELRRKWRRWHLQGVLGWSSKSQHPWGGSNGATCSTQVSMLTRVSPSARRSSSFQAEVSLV

B1: P201 (cyclic PEGylated VPAC2 receptor peptide agonist) (peptide)
peptide: HSDAVFTENYTKLRKQ[Nle]AAKKYLNDLKKGGPSSGAPPPC
modifications: not fully specified (residue 39); ends and bridges not checked; also: further groups not given here
B2: P376 (cyclic PEGylated VPAC2 receptor peptide agonist) (peptide)
peptide: HSDAVFTENYT[Orn]LR[Aib]Q[Nle]AA[Orn]KYLNDL[Orn][Orn]GGPSSGAPPPC
modifications: not fully specified (residue 39); also: cyclic, bridge type and places not given here, PEGylated, site not placed
B3: P463 (cyclic PEGylated VPAC2 receptor peptide agonist) (peptide)
peptide: HSDAVFTENYT[Orn]LR[Aib]Q[Nle]AA[Orn]KYLNDL[Orn][Orn]GGPSSGAPPPC
modifications: also: cyclic by a side-chain bridge (lactam or disulfide), places not given here, PEGylated, site not given here

Columns and labels:
human VPAC1 = biological target: T1, human VPAC1; assay: Filter binding assay, 125I-labeled VIP tracer; conditions: membranes from cells transiently transfected with human VPAC1; read-out: Human receptor binding IC50 VPAC1
Description: (§1) In order to prepare the filter plates, the presoak solution is aspirated by vacuum filtration. The plates are flushed twice with 200 μL flush buffer. 200 μL blocking buffer is added to the filter plate. The filter plate is then incubated with 200 μL presoak solution for 1 hour at room temperature.
(§2) The assay plate is filled with 25 μL assay buffer, 25 μL membranes (2.5 μg) suspended in assay buffer, 25 μL compound (agonist) in assay buffer, and 25 μL tracer (about 40000 cpm) in assay buffer. The filled plate is incubated for 1 hour with shaking.
(§3) The transfer from assay plate to filter plate is conducted. The blocking buffer is aspirated by vacuum filtration and washed two times with flush buffer. 90 μL is transferred from the assay plate to the filter plate. The 90 μL transferred from assay plate is aspirated and washed three times with 200 μL flush buffer. The plastic support is removed. It is dried for 1 hour at 60° C. 30 μL Microscint is added. The count is performed.
(§4) Values reported are single results or the mean of two or more independent runs.

human PAC1 = biological target: T2, human PAC1; assay: Filter binding assay, 125I-labeled PACAP-27 tracer; conditions: membranes from cells transiently transfected with human PAC1; read-out: Human receptor binding IC50 PAC1
Description: as §1, §2, §3, §4

Normal Wistar rats = assay: Intravenous glucose tolerance test (IVGTT); assay type: in vivo, rat; conditions: 10 min between glucose and compound
Description: Intravenous glucose tolerance test (IVGTT): Normal Wistar rats are fasted overnight and are anesthetized prior to the experiment. A blood sampling catheter is inserted into the rats. The compound is given in the jugular vein. Blood samples are taken from the carotid artery. A blood sample is drawn immediately prior to the injection of glucose along with the compound. After the initial blood sample, glucose mixed with compound is injected intravenously (i.v.). Compound may also be injected intravenously or subcutaneously prior to the glucose challenge. A glucose challenge of 0.5 g/kg body weight is given, injecting a total of 1.5 mL vehicle with glucose and agonist per kg body weight. The peptide concentrations are varied to produce the desired dose in μg/kg. Blood samples are drawn at 2, 4, 6 and 10 minutes after giving glucose. The control group of animals receives the same vehicle along with glucose, but with no compound added. In some instances, a 30 minute post-glucose blood sample is drawn. Aprotinin is added to the blood sample (250-500 kIU/ml blood). The serum is then analyzed for glucose and insulin using standard methodologies.
The assay uses a formulated and calibrated peptide stock in PBS. Normally, this stock is a prediluted 100 μM stock. However, a more concentrated stock with approximately 1 mg agonist per mL is used. The specific concentration is always known. Variability in the maximal response is mostly due to variability in the vehicle dose.

[1] = rat, in vivo, sc, 0.1 mg/kg
Description: Healthy Fisher 344 rats (3 animals per group) are injected with 100 μg compound/kg (compound amount based on peptide content and dissolved in PBS buffer). […] PK parameters are then calculated using a model-independent method (WinNonlin Pro, Pharsight Corp., Mountain View, Calif., USA).

human VPAC2 receptor [2] = biological target: T3, human VPAC2 receptor; assay: cell-based or functional assay
rat VPAC2 receptor = biological target: T4, rat VPAC2 receptor; assay: cell-based or functional assay
rat VPAC1 receptor = biological target: T5, rat VPAC1 receptor; assay: cell-based or functional assay
human VPAC2 receptor [3] = biological target: T3, human VPAC2 receptor; assay: filter binding assay, human VPAC2 membranes, displacement of 125I-VIP
Description: as §2, §3

Molecule	IC50 (human VPAC1) [nM]	IC50 (human PAC1) [nM]	% increase AUC (insulin, 0-10 min after glucose) (Normal Wistar rats; Dose 0.5 μg/kg)	% increase AUC (insulin, 0-10 min after glucose) (Normal Wistar rats; Dose 5 μg/kg)	% increase AUC (insulin, 0-10 min after glucose) (Normal Wistar rats; Dose 15 μg/kg)	% increase AUC (insulin, 0-10 min after glucose) (Normal Wistar rats; Dose 50 μg/kg)	AUC0-last [1] [ng·h/mL]	Cl/F [1] [mL/min/kg]	Vd/F [1] [L/kg]	EC50 for cAMP generation, Alpha screen (human VPAC2 receptor [2]) [nM]	EC50 for cAMP generation, DiscoveRx, CHO-PO cells (rat VPAC2 receptor) [nM]	EC50 for cAMP generation, DiscoveRx, CHO-PO cells (rat VPAC1 receptor) [nM]	IC50 (human VPAC2 receptor [3]) [nM]
P257: cyclic PEGylated VPAC2 receptor peptide agonist (HSDAVFTENYTKL[Aib]KQ[Nle]AAKKYLNDLKKGGPSSGAPPPC; not fully specified (residue 39); ends and bridges not checked; also: cyclic, bridge type and places not given here, PEGylated, site not placed) [Agonist P257]	> 25000	> 3000	+14%	+114%	+158%	+230%	4396	0.383	0.425	–	–	–	–
HSDAVFTENYTKLRKQ[Nle]AAKKYLNDLKQGGPSSGAPPPC (ends and bridges not checked; also: further groups not given here) [P239 (cyclic PEGylated VPAC2 receptor peptide agonist)]	–	–	–	–	–	–	–	–	–	4.42	11.2	27.8	8.33
B1	–	–	–	–	–	–	–	–	–	7.82	13.2	20.8	4.11
HSDAVFTENYTKLR[Aib]Q[Nle]AAKKYLNDLK[Aib]KGGPSSGAPPPC (also: further groups not given here) [P348 (cyclic PEGylated VPAC2 receptor peptide agonist)]	–	–	–	–	–	–	–	–	–	5.82	3.26	36.9	3.54
HSDAVFTENYTKL[Aib]KQ[Nle]AAKKYLNDLKQGGPSSGAPPPC (ends and bridges not checked; also: further groups not given here) [P255 (cyclic PEGylated VPAC2 receptor peptide agonist)]	–	–	–	–	–	–	–	–	–	111	51.4	> 350	> 100
HSDAVFTENYTKL[Aib]KQ[Nle]AAKKYLNDLKKGGPSSGAPPPC (ends and bridges not checked; also: further groups not given here) [P257 (cyclic PEGylated VPAC2 receptor peptide agonist)]	–	–	–	–	–	–	–	–	–	42.2	37.9	> 1000	32.7
B2	–	–	–	–	–	–	–	–	–	4.71	9.13	48.4	4.89
B3	–	–	–	–	–	–	–	–	–	365	182	184	> 100
